This is an account of results in patent US20050281914.

Read-outs that look alike come from different tables or passages of the source.

In series [1] the target is T1, αS1-casein (f1-9).
T1 chain: RPKHPIKHQ

Series [2] has as its target T2, β-casein (f193-209).
T2 chain: YQEPVLGPVRGPFPIIV

The test system of series [3] is T3, αS1-casein (f1-9).
T3 sequence: RPKHPIKHQ
This is another data set of the same source.

Series [4] has as its system T4, β-casein (f193-209).
T4 sequence: YQEPVLGPVRGPFPIIV
The source holds these as a separate data set.

B1: Lactobacillus helveticus CNRZ32 endopeptidase PepF (protein)
chain: MAIPTRSEVPEDLKWDLTRIFKTDQDWENAFDKAKDDVAKLSELKGSLAKSGKDLYEGLTKILAVKRDVENIYVYATMSSDVDTSNSHYLGYVSRVQSLSNQFEATTSFINPEILSIPAEKFEQFKKDEPRLADYAHYLEMITNKRPHTLPAEEEKIIADAGDAMSVSENTFNVLTNSDMEYGYVQDEDGNMEQLSNGLYSLLIQSQNRDVRKGAFNTLYASYGQFQNSLASTLSGVVKKHNYNARMHKYDSAREAALADNGVPVEVYDTLIKEVDSHLDLLHRYVALRKKILGLKDLQMWDMYVPLTGKPALSYNFEEAKKVAKEAMKPLGEDYLKHVDYIFNNRVIDPVESKGKVTGAYSGGAYDTDPYELLNWEDNIDSLYTLVHETGHSVHSWYTRHSQPYIYGNYPIFVAEIASTTNENILTEYFLDHITDPKTRAFILNHYLDSFKGTLFRQTQFAVFEQFIHEADAKGEPLTADILDDVYGQINQHYYGDSVEPGGDIALEWSRIPHFYYNFYVYQYATGFAAATALANKVVHGSQADRDAYLGYLKSGSSDYPTEIMKRAGVDMTKPDYLKDAFKTFEKRLNEFESLIGK
Consider B1, for which the “Specific activity (E. coli CFE)” value in the series with αS1-casein (f1-9) [1] is “-”. Also, in the series with β-casein (f193-209) [2], the Specific activity (E. coli CFE) (nmoles substrate hydrolyzed/h/mg protein) was 14 and the Specific activity (E. coli CFE, control subtracted) (nmoles substrate hydrolyzed/h/mg protein) turned out to be 14.

B2: Lactobacillus helveticus CNRZ32 endopeptidase PepO3 (protein)
chain: MTVRGGAGDITEADLSARPQDNLYLAVNSEWLKNAKIPSDRSRTSSFDGIDLNIEKELMQDFADFADGKKDLPDVPNFEKAVALYKIAKDFDRRNADGADPIQADLHEILGLRNFADFTLKAADFFKNGFPMPFDFSVEADMKNTKIHSLQFGGPGTFLPDTTTYKTPAAEKLLAVLKEQSINLLTMSGISKSEAEDYAEKALAYDAKIAKVVKSAEEWADYPATYNPISRDDFADKFKSFKMDYFLGELFAKKPERVINTEPRYLDYAEELLNEDVFAEIKAWMLVKFVNGVASSLSQEFREAAFPFSQALSGQPELPSGVKQAYHIANSDFSEVVGVYYGQTYFGAEAKADVTDMIHKMLDVYEKRIRENSWLSQATKDKAIVKLRALILKIGYPDKIEEIYDRLTVDPEASLYANEAQFGREQIKYNLEKLDQDVDRSVWLMPGNLVNACYDPQRNDLTFPAAILQKPFYDLKQSRSLNYGGIGVVIAHEISHAFDNNGAQFDEFGNMKNWWTEKDFAEFKKRTQAEIDLFDGIKYGPVTLNGKQIVSENIADQGGLTAAVEANKGEDGNMKELFENFARVWATKQLPESIKTQVSVDVHAPGPERANVQSQCQEEFYKAFDVTEHDGMWLDPEKRVVIW
On to B2, for which, in the series with αS1-casein (f1-9) [1], the Specific activity (E. coli CFE) (nmoles substrate hydrolyzed/h/mg protein) amounted to 79; the Specific activity (E. coli CFE, control subtracted) (nmoles substrate hydrolyzed/h/mg protein) amounted to 85; the “Specific activity (Lc. lactis CFE), Cheddar cheese serum” value was 63 (25)^b, A; the “Specific activity (Lc. lactis CFE), defined peptide mix” value was 38 (9.0)^c, A. Besides, the “Specific activity (Lc. lactis CFE), individual peptide reaction” value with αS1-casein (f1-9) [1] is 41 (19)^b, A. Moreover, in the series with β-casein (f193-209) [2], the Specific activity (E. coli CFE) (nmoles substrate hydrolyzed/h/mg protein) worked out at 88; the Specific activity (E. coli CFE, control subtracted) (nmoles substrate hydrolyzed/h/mg protein) came out at 88; the “Specific activity (Lc. lactis CFE), Cheddar cheese serum” value is recorded as 61 (23)^b, A; the “Specific activity (Lc. lactis CFE), defined peptide mix” value is on record as 40 (6.0)^a, B. Further, in the series with β-casein (f193-209) [2], the “Specific activity (Lc. lactis CFE), single peptide reaction” value is reported as 81 (7.0)^a, A and the “hydrolysis in spiked Cheddar cheese serum (RP-HPLC)” value is “hydrolyzed completely within 12 hours”.

B3: Lactobacillus helveticus CNRZ32 PepE expressed as PpepO3:pepE translational fusion in Lactococcus lactis LM0230 (pSUW666) (enzyme, UniProt P94870 1-438, looked up)
Aminopeptidase E: MAHELTVQELEKFSADFNKNPKNKVVARAAQRSGVLEASYNDRVQSELTRVFSTELDTDNVTNQKHSGRCWLFATLNVLRHEFGKKYKAKDFTFSQAYNFFWDKIERANMFYNRILDSADMPLDSRQVKTDLDFAGTDGGQFQMAAALVEKYGVVPSYAMPETFNTNDTTGFATALGDKLKKDALVLRKLKQEGKDDEIKKTREKFLSEVYQMTAIAVGEPPKKFDLEYRDDDKKYHLEKDLTPLEFLHKYLGGVDFDDYVVLTNAPDHEYDKLYGLPAEDNVSGSIRIKLLNVPMEYLTAASIAQLKDGEAVWFGNDVLRQMDRKTGYLDTNLYKLDDLFGVDLKMSKADRLKTGVGEVSHAMTLVGVDEDNGEVRQWKVENSWGDKSGAKGYYVMNNEWFNDYVYEVVVHKKYLTDKQKELAEGPITDLPAWDSLA
modifications: PpepO3 fusion junction residues; expressed in Lactococcus
As for B3, in the series with αS1-casein (f1-9) [3], the “Specific activity (Lc. lactis CFE), Cheddar cheese serum” value is 31 (17)^c, C; the “Specific activity (Lc. lactis CFE), defined peptide mix” value was 120 (7)^a, B; the “Specific activity (Lc. lactis CFE), individual peptide reaction” value is 190 (14)^a, A; the “relative activity in the defined peptide mix” value is “PepE had highest activity towards αS1-CN (f1-9) and αS1-CN (f1-6)”.

B4: Lactobacillus helveticus CNRZ32 endopeptidase PepO2 (protein)
chain: MNLAKIRGGAGDITKPDLNARIQDNLYLAVNSDWISKAKIPADRPLISSFSEIDLKIEKELMNDLADFASGKKALPDIPNFDKAIEVYKLAKDFAKRDADGFQPAQADLETLINLKDVDDVKQNLAKLLLRFSFPFLFEVEPDRKNTKTNSLSFDRNSLILPDTTSYQSPSAKQLLDVWQKQTENLLKMAGVEEAAAKKYATDAIALDAKIVKVAKSAEERADDVALYNPIKTNEFEEKTSSLNLGQLLEQLFEKKPNYVVVSEPKFLDHFNELFNQESFDELKGWLISIFINKAAAFLSEEFRQAAFPFKQATYGQKELPSQEKEAYYKANNLFDDVIGVYYGRTYFGEDAKADVEDMIHRMIDVYEQRITNNEWLSPATKEKAITKLRALVLKIGYPNKIDHVYDLFQVTPANEGGNLYSNQANIREVSLKHNFDKLYKPVDRSEWYMPGNLINACYDPQRNDITFPAAILEAPFYDINASRATNYGGIGVVIAHEISHAFDNNGAKYDEFGNMKNWWTKEDFAEFEKRTQAEIDLFDGIKYGPVTLNGKQIVSENIADQGGLTAGIEANKNEHGDMKELFENYARIWASKESPEIIKTIAAFDVHAPGPVRVNVQVQCQPEFYKAFNVQEGDGMWLDPAKRVVI
With B4, in the series with αS1-casein (f1-9) [1], the Specific activity (E. coli CFE) (nmoles substrate hydrolyzed/h/mg protein) turned out to be 1900; the Specific activity (E. coli CFE, control subtracted) (nmoles substrate hydrolyzed/h/mg protein) is 3700; the “hydrolysis detected by RP-HPLC (pH 6.5, 37° C.)” value was “significant hydrolysis of both β-CN(f193-209) and αs1-CN(f1-9) was detected with CFEs from E. coli DH5α (pSUW99)”. Moreover, in the series with β-casein (f193-209) [2], the Specific activity (E. coli CFE) (nmoles substrate hydrolyzed/h/mg protein) stood at 290; the Specific activity (E. coli CFE, control subtracted) (nmoles substrate hydrolyzed/h/mg protein) was 290; the “hydrolysis detected by RP-HPLC (pH 6.5, 37° C.)” value was “significant hydrolysis of both β-CN(f193-209) and αs1-CN(f1-9) was detected with CFEs from E. coli DH5α (pSUW99)”.

B5: Lactobacillus helveticus CNRZ32 PepO2 expressed as PpepO3:pepO2 translational fusion in Lactococcus lactis LM0230 (pSUW665) (enzyme)
chain: B4 chain
modifications: PpepO3 start and BamHI junction residues
Regarding B5, in the series on β-casein (f193-209) [4], the “Specific activity (Lc. lactis CFE), Cheddar cheese serum” value is 120 (32)^a, A; the “Specific activity (Lc. lactis CFE), defined peptide mix” value is reported as 42 (10)^a, B; the “Specific activity (Lc. lactis CFE), single peptide reaction” value is recorded as 64 (1.5)^a, B; the “hydrolysis in spiked Cheddar cheese serum (RP-HPLC)” value is recorded as “hydrolyzed completely within 12 hours”. In addition, in the series with αS1-casein (f1-9) [3], the “Specific activity (Lc. lactis CFE), Cheddar cheese serum” value is 150 (40)^a, B; the “Specific activity (Lc. lactis CFE), defined peptide mix” value is given as 84 (20)^b, C; the “Specific activity (Lc. lactis CFE), individual peptide reaction” value is recorded as 240 (10)^a, A; the “relative activity in the defined peptide mix” value is “PepO2 had highest activity towards peptides αS1-CN (f1-9), and αS1-CN (f1-13)”.

B6: Lactobacillus helveticus CNRZ32 endopeptidase PepE2 (protein)
chain: MKHELTMAEIAKFQQEYKKEPQNRVAELAVVNNGVQKASFNTEGIRKLNRTFSIEIPTDNVTDQKQSGRCWLFAALNTLRHGFAKKYNTKNFTFSQNYLFFWDRVERANIFFDNILNTADKPLGDRTVHTYMQGPDADGGQWAMAVSLIRKYGLVPTYAQEESFTANNTAAFNRALNMKLREDGLILRKLAKENKTDEIETKRQEFLSEVYRMAVIAFGEPVQKFDLEFKDDDGKYHFDGDLTPLDFFHNYFTDDLDDYIVLFNAPDHEFDKLYALPFEDNVEGGTPVQFLNTEIDNLKEAAIKQLEAGETIWFGCDVGKDSDRQKGILSKGLYQTDTIFNIETKLSKKERLQTGASGSTHAMTLVGVDVVDGKPRQWKIENSWGAKVGEKGYFVMDDDWFNEYLFKVVVKKQYVPDKLVKIWEGEATPVEAWDSMA
Turning to B6, the “hydrolysis under simulated cheese ripening conditions” value in the series with αS1-casein (f1-9) [1] and with β-casein (f193-209) [2] was “No hydrolysis of either peptide was detected after incubation with CFE from E. coli transformed with pepE2” each time.
